From US20230346934A1 come the findings set out here.

This test addresses PDL1 on DMS 273-PDL1 target cells (UniProt Q9NZQ7). Description: cell-based or functional assay.
UniProt Q9NZQ7, sequence (Q9NZQ7 19-290 limits assumed): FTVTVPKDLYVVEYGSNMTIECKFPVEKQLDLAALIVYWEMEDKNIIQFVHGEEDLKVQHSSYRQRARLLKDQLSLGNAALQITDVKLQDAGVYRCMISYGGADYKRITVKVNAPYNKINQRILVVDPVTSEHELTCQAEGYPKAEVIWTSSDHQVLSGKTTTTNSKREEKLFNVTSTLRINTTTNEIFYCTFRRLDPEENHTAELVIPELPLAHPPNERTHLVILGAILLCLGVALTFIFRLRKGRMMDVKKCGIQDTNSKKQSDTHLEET

Consider HA PD1.CD28 chimeric switch receptor, for which the cytokine secretion (IL-2, IFNγ; Meso Scale Discovery) was more than 10 fold.

WT PD1.CD28 chimeric switch receptor registered a cytokine secretion (IL-2, IFNγ; Meso Scale Discovery) of more than 10 fold.
